From the DeepSol protein solubility set

Experiment: soluble on expression in E. coli; label from the status in PepcDB or PDB records

Sequence	soluble on expression in E. coli
MEYMVLIYRDEAFAPEYGSPEWEQMMGGFLAFNQRLIDGGHWIAGGGLQTTPSATTVRLAAGTVPKVLDGPYAETKEQLGGFYLVRADTLDEVLDLARSLPIEGAIEVRPLTYRPTGE	not soluble
MEYNLDLARAFLQKHRIAVVEPNPPYLQFSEAQLAQQKAKLAKNLQISTACKWLFVHASTGGSATSLSIEQYAQMLNGIASETNCEIVLTAGKGESEKAYQLAAQITATKAVVYDKNDGLQDFARSIACADLFIAGSTGPLHIAGALNVATIGFYPSRLSALPRRWRPINEEGKHLEHHHHHH	not soluble
MFAERLKELRKREAGLTQERLAMQLGMAKTTLASYEQGKRQPDLETLSKIADRFSVTTDYLLGKNGTPKWATKKDTIDLKDFLEANEGSMTYGGEDLTEEEKQQVRVAMATIFWKRHKHD	not soluble
MFDPKKLEQIAKQIHDSMPAPVKELGADVDQKVRQVIQGQLNKLDVVSREEFDVQTQVLLRTRQKLTEMEKKLSELEEKLADK	not soluble
MFEPGHLHLVSLPGLDQQDINIHIRYEVRQNAESGAYVHFDMDGEIDGKPFSDSFELPRDTAFNFASDATRVAQKHGLHPKFGAITRVHKEYDAMFEDIRAKLHAHPGEPVDLERIIRHE	not soluble
MFETCEAIVMRTVDYGETNKIVTLFTREWGKVAAMARGAKKPSSRLSAVTQPLSYGHYVIRRSRGVGVLHQGELIDSMRALREDLFAAAYAVYIVELTDKSTEEQKRNPYLFELLLQTLQYMSEGRDLEILTFIYEMKMLAVLGIPPVLDRCARCGATEGRFSFSVKEAGFLCHRCEASDPHRFPLSSASVRLLRLFFHIDLARLGSISVKESTKMELGSVLSAYYDEYAGLSLKTKRFLQQIGELKDKLSPDGGQGASFSL	not soluble
MFFSEARARSRTWEASPSEHRKWVEVFKACDEDHKGYLSREDFKTAVVMLFGYKPSKIEVDSVMSSINPNTSGILLEGFLNIVRKKKEAQRYRNEVRHIFTAFDTYYRGFLTLEDFKKAFRQVAPKLPERTVLEVFREVDRDSDGHVSFRDFEYALNYGQKEA	not soluble
MFFSFKIDGDELDKRMGGGVYVGQLFTIFGDNSEGKTLLSLRLAYGFLKNGISITYVSSQMPVREFISFSDALGYPVLNSVISGSMLYITPVFMLRRTRRANLDELINNDRIKEKSVLIIDSLNPGMFRDFEINSYMEKLRKFSENRVVIITANQASLDDATVLRINQLSTTIVTLHSKELGGVKRHFIDLVKYPMVVRSIQQSIPFRVEPGRGLIVEISSVS	not soluble
MFGNYISTSPEKIIMLALRIMQGIAKTLAEHVLDLKHSPLSKQAMKRQTLRLWAEYSLGTINKIIDMKSGPSNQSAEEMEFIRRLILIRRDIHSQLHSVGIDINDGTGD	not soluble
MFGSSGFGNKSMFGGSNISTSTTTPAANTTQNDDFLVDGAPEDTIQVIKFSPTPQDKPMLACGSWDGTIRVWMFNDANTFEGKAQQNIPAPILDIAWIEDSSKIFIACADKEARLWDLASNQVAVVGTHDGPVKTCHWINGNNYQCLMTGSFDKTLRFWDMKNLPNQTQMAQIQLPERVYAADVLYPMAVVALANKHIKVYNLENGPTEVKDIESQLKFQIRCISIFKDKSNQNPAGFALGSIEGRVAVQYVDVANPKDNFTFKCHRSAELVNGFQEIYAVNDICFHPQHGTLVTIGSDGRYSMWDKDARTKLKTSEPHPMPLTCCDVHSSGAFLVYALGYDWSRGHEGNTQPGSKIVIHKCIEDMKPRPTKK	not soluble
MFGTNGNAGIAVTDPTKQAEIYRALESLKKDESGWKKSVDSFIGPHKPSPEEQFLLLQVIEDYLNKRYHSSSQGDVSVIRTFLLHYTKNSRSSTVDQPAFLTNKMAHIFSLVFAADFPERWSSFFNDLFFSDNINDRKVAFFYLKVLLAIDTEVVNRDIQRSKNESDRNIKIKDAMREICINEIAKSWLTIANALPEDNVIQCLVLDNIASYVDWIELDLVANDYVMPLIISKFQNPATSESATAAVCSLLEKGMPAEKKVGLTLTIMTVLRSNGLLTVNDNNDEEEVTRVGSLVNTLGLVLLDVQNKLCASSILEKEQECCVQEMAGLAEPALVVLNNEDPDLSCMCIDYIRAYCSFLLKFHPNETNFIEKVIRAGLQRYVMNDDMTVGGDGEDEVEFQEFRRELRSMLNVIGLKRPEAIINAVEPWTAEVTSGGSSIPVNRIEALLNVIFHLHEIIPSNMLQSPREGISQRAARLPIVILEGLVLDGRCPAIHVLYFELACRYERLLVLQPQPVVIPHIAAAFLDQRGISISSANVRTRIVYLFCRFVKSHKTVLGPLVSEVITRLAPLLAVSPQADTNQLLSPEDQGYIFEATATLIVFGDLTSEMKSQYVGELASTLAMKFENGLVELNTARARKADEETIQAILQFMSNIIGYSSRMSKAFNNAQSMKACNCIDIYLRLIKLYLETLSPQNAFLLESTRQFAHRLVVSMENELMPYMNGIFDKLALVSTDLDSMHHLLIFCHQTVAKYKKAMLTSGVDLGNVLAIAARASLQEQENNIPAKDDSQRALLYVQRAFVQLLYTVIASDCTPALNTTPGLLDHVLESAARLALSSDQTAQKVALSCLAKISLITPSWSARTLRVALEIPSLSHITPSDAGSTLVVHEVCATLTSLHQSDPDGFTRALRELVPNGFSDQLLSALTNLKGKNLDKQVMNLYSSLRNQSAQ	not soluble
MFHLKTFSDMVESIQITSFHNAELLNFMIDEVKDARTLSKNEIIPTLDELDKVLATFKKGIAMNKTSEYSEKITALDAVRSKAFRNFIGCIQGETHRPEEDHREAARRLFILLKPYNNLNRKSYRNKTELMYKLVEVLRSDKHASDVQTVNVSAWIDKMDNANKAFDQLFDLRDNTEGERLIINNREMRHRIRLHYNRLLEIIEALLVLHADRPLEGFVGRHNERVAKMKALFALRASIGTKSTREKRDVLRSLAIGLGWSLPAGQEDFEFFAGTRILHPTEHRWYCLGKKDNIITLVLYKGKKKQSSSSSSNSSVDLPDLPAPPPSQPDNGSSGGGGEQGGGGSGGL	not soluble
MFIPKSHTKLIYEYLFNEGVTVAKKDFNAKTHPNIEGVSNLEVIKTLKSLASRELVKEQFAWRHYYWYLTDAGILYLREYLALPAEIVPATIKTKPREIRVPHEDRAPRAAQGEKGDREAYRTEKVTEAGPGGAPVYRAGFGRGAPPPQ	not soluble
MFIPQIVPIRDLKNTSAISNLCHKTNEPIFITKNGYGDMVIMSMETYEGNAFFNNLYGNLEEAEMDLQNGRVSGIDEAIEEIKSRYDLEHHHHHH	not soluble
MFKKLKASLGIGSAKVDTILDEMSVFQGATLKGHVHIKGGDVEQQIDAITIKLNTEMKVEVDDSVSYQTFTIDQLKAVDPFVIQPNEEKQVPFELKLHDETPITAVSALKNQCNVWVETTLDIDFAIDPRDRDYIEVKPLPVASRVIRAIEQAGFTMVKADVEKGFLRGGSFASRSGIYQELEFRNSGFVSSKEIELSFILEGQVMHCLAEIDRSLSFSGDQYRSFTLPINATDAQVAAAVAPTLSL	not soluble
MFKRLFMVALLAIAPLVHAVDQSNPYRLMDEAAKKTFTRLKNEQPKIKQNPDYLRTIVREELLPFVQIKYAGALVLGSYYKDATPAQREAYFNAFGKYLEQAYGQALALYHGQTYDVAPDQPLGDANIVAIRVTILDPSGRPPVRLDFQWRKNSQTGNWQAYDMIAEGVSMISTKQNEWASILRQKGVDGLTQQLLSAAKQPITLDK	not soluble
MFLKSLIFVLTFQFSNGNPVEQVHLSLSGKADEMVVTWLTHDPRKFTC	not soluble
MFLPVLDSLPSDYDLLRKTYSRMKLEWSTHDLISHCVQEEERLTNEKKEHDLVAGKVICDKKRKQYDECLEAVLGN	soluble
MFLQSNEHVGTYYAAVNPELIQPRQALEGDLDCEVLVVGAGFSGLHTALRLVEGGRQVCVIEASRIAWAASGRNGGQALPGWSSDLPPLEADLGYEGARRLWDGMLWAAGEMRELPQRHGFDCDYRVGHLWTAILPRRVGLLYDWQAEANRRWGYEGLRFVAKDELPEWIASERYLAGLYDPHAAHLNPLKLAFGLAAAIERAGGRIHERTRALNYREEGDGYRVRTEHGEIRCAALVLACNAYIDGLDSELSQRMLPVGTYQVATEPLGEERAKSLLPRNCCVTDNQFVLDYFRLTPDHRLLFGGGCTYLGGMPSDIRAATRPYLERVFPQLRGVALEYAWGGHIDCSMRRTPDIGRQGNRYWLQGYSGHGVLPSLAAARAVSDALLGDDETLALYQRLRNPKFPGGQRFAAPLEALGKAYYRLRDLFLEHHHHHH	not soluble
MFNFANFYQLIAQDTRLQPWLNVLPQQLTDWQNAEHGDFGRWLKALNKIPEGSPDQVDIKNSVTISNDTPFHEGELKKLENLLRTFHPWRKGPYTVHGIHIDTEWRSDWKWDRVLPHISPLKNRSVLDVGCGNGYHMWRMLGEGARLCVGIDPSHLFLIQFEAIRKLMGGDQRAHLLPLGIEQLPKLEAFDTVFSMGVLYHRRSPLDHLIQLKDQLVSGGELVLETLVIEGDENAVLVPTSRYAQMRNVYFFPSAKALKVWLELVGFEDVHIVDENVTSVDEQRTTDWMTHNSLPDYLDPNDPSKTVEGYPAPRRAVLVARKP	not soluble
MFNKVIMVGRLTRNVELKYLPSGSAAATIGLATSRRFKKQDGTLGEEVCFIDARLFGRTAEIANQYLSKGSSVLIEGRLTYESWMDQTGKKNSRHTITADSLQFMDKKSDNPQANAMQDSIMHENSNNAYPANH	soluble
MFPCLCTLKILTFQPKFQKIHDEMKALKAAGKQDEFAKKFVTKDAIFMGPLHEPANVTEAAKFAKSEMMAAVSKGEFNITIDEITPIGDVVIERCTIHAKVASGDKTGWSLCVWVKDGGAWKIRNSCTTFKVVPSA	not soluble
MFPIKKRKAIKNNNINAAQIPKHIAIIMDGNGRWAKQKKMPRIKGHYEGMQTVRKITRYASDLGVKYLTLYAFSTENWSRPKDEVNYLMKLPGDFLNTFLPELIEKNVKVETIGFIDDLPDHTKKAVLEAKEKTKHNTGLTLVFALNYGGRKEIISAVQLIAERYKSGEISLDEISETHFNEYLFTANMPDPELLIRTSGEERLSNFLIWQCSYSEFVFIDEFWPDFNEESLAQCISIYQNRHRRFGGL	soluble
MFPQADEPERDTLPGQEEDPLPTGQEQPSITPIAGTEAQYIDIAEWYDSDSILYITDEGENSLVYIYNLLTGEKKSLFSSDDAVIKVTANSTHSQFAIQTVTQAGDAPVSIIDSQGELLMKLEDFGEDFSIFWSPYEEDKLIAVAYLPDWEQDLYLIDTSDKQVEMLDLDQSFVQWLDERTIVYLDWNGDSEGYYAPLYTFDLETEEVVLLHEEAIATLGFGDHVTLIIERPEQGAEVTTYQFWNGSEQLAEWSVPILRTYSEQWWIPFYDFDLNKRLFYAYKPNRTGDYFEYDGGFSFIAFDVDHGEETVLFESDEHVPFRLSPTGQRALFGPRLETVMDLPTGESNSLIE	not soluble
MFPWIVIHEGNLFDTQKPLKCAILSEFQSMVSESDGPSSSKTGGISSSMTHPLDMLGDTYGIFDLMMDTSSIKPILTEILCSSDHWRRNGRHPVVLSTFPFSAIAREINASCSEALFYEIANVERMIVGDSRHAMNLGDQLAFEIFSTVMMISDLDIFLLGASNLYLSDRRGFNRDLTDVFWSSFISSLLMRNDRNRLFILIKGGLKYVSDLLSEYIVARISMELSDQTIRIRLIYL	soluble
